{
  "source": "patent US20260061042A1",
  "about": "“POLYNUCLEOTIDE COMPOSITIONS AND USES THEREOF” (Pfizer Inc., priority 2024, published 2026)",
  "molecules": {"B1": {"name": "PapG^LD N96S R170A: PapG lectin domain N96S with R170A ligand binding site mutation; SEQ ID NO: 23 (protein)", "chain": "METDTLLLWVLLLWVPGSTGWNNIVFYSLGNVNSYQGGNVVITQRPQFITSWRPGIATVTWNQCNGPEFADGSWAYYREYIAWVVFPKKVMTKNGYPLFIEVHNKGSWSEENTGDSDSYFFLKGYKWDERAFDAGNLCQKPGETTRLTEKFNDIIFKVALPADLPLGDYSVTIPYTSGIQRHFASYLGAAFKIPYNVAKTLPRENEMLFLFKNIGG"}, "B2": {"name": "PapG^LD N96S W107A: PapG lectin domain N96S with W107A ligand binding site mutation; SEQ ID NO: 22 (protein)", "chain": "B1 chain with W127A, A190R"}, "B3": {"name": "PapG^LD N96S K172A: PapG lectin domain N96S with K172A ligand binding site mutation; SEQ ID NO: 24 (protein)", "chain": "B1 chain with A190R, K192A"}},
  "key": {"[1]": {"tested_on": "E. coli strain CFT073 agglutination of human red blood cells", "test": "PapG hemagglutination (HA) assay", "assay_type": "cell-based", "details": "pre-incubation with E. coli CFT073 WT strain, human RBC", "method": "16. PapG Hemagglutination (HA) Assay\n(§1) A PapG HA assay was developed based on procedures described previously. WT E. coli strain CFT073 bacteria were streaked out from a frozen glycerol stock for single colonies on a tryptic soy blood agar plate. To grow bacteria for use in the HA assay, bacteria were cultured overnight in Luria Bertani liquid media at 37° C. and shaking at 230 rpm. The next morning, bacteria were washed once with 1×PBS and normalized to an OD540 of 1.0 in PBS. 30 μL of bacteria were then placed in a V-bottom 96-well plate (Corning, 3894) and serially diluted across the plate. […] After this incubation, 60 μL of a 1.75% red blood cell (Human Red Blood Cells, Washed, Rockland Immunochemicals R407-0050) solution (diluted from 10% stock using 1×PBS) was added to all the wells in the plate. The plate was incubated for 2 hours at 4° C. and then imaged using a light box and camera or ImageQuant System. To collect quantitative data, assay plates were analyzed using a Clariostar instrument. Absorbance was measured at a wavelength of 540 nm, which was the maximum absorbance observed using an RBC only control well, and a read diameter of 4 mm within each well. Absorbance was normalized using blank controls (1×PBS only).\n7. Development of a Hemagglutination (HA) Assay as a Functional Assay to Evaluate Sera from PapG Immunized Animals. […]"}, "[2]": {"target": "T1, E. coli CFT073 PapG-II lectin domain PapGLD variant N96S G104A, SEQ ID NO: 16 (Escherichia coli, UniProt A0A0H2VAQ6, G124A/N116S)", "T1 sequence (A0A0H2VAQ6 with tags, fused parts or gaps N116S/G124A)": "B1 chain with G124A, A190R", "test": "SYPRO orange thermal shift with GbO3", "assay_type": "binding", "details": "shift in melting temperature in the presence of GbO3 vs apo; 3 replicates; PBS pH 7.4, 4% DMSO", "method": "(§2) PapG proteins were added to assay buffer (consisting of 4% DMSO, 1:1000 dilution of SYPRO orange (Invitrogen S6650) in PBS pH 7.4) at a final concentration of […]. Melt curves were analyzed in a QuantStudio 6 Real-time PCR system (ThermoFisher) using a dissociation protocol from 25° C. to 99° C., at 0.05° C./second. ROX was specified as the reporter.\n(§3) The thermal stability of PapG WT and mutant proteins were determined using a SYPRO orange thermal shift-based differential scanning fluorimetry assay, wherein Tm designates the temperature at which 50% of the protein is unfolded. Non-covalent ligands often stabilize protein targets upon specific binding, resulting in an increase in protein melting temperature. Tm were therefore determined in the presence and absence of GbO3 for PapG, and the difference in Tm (ΔTm) of protein in the presence of ligand relative to the apo form was calculated."}, "[3]": {"tested_on": "E. coli strain CFT073 (PapG-dependent agglutination of human red blood cells)", "test": "PapG hemagglutination (HA) assay", "assay_type": "cell-based, Escherichia coli CFT073; human red blood cells", "details": "pre-incubation of E. coli CFT073 WT strain with GbO3, then human RBCs", "method": "as §1\nPapG mediates the ability of E. coli to agglutinate human red blood cells (RBC)."}, "[4]": {"test": "PapG Luminex ligand binding assay with globoside GbO4", "details": "result in words", "method": "9. PapG Ligand Binding Assay with Globoside GbO4\nTo determine the ability of PapGLD mutants to bind the porcine derived globotetraosyl ceramide ligand GalNAc-Gal-Gal-Glc-ceramide (GbO4), a Luminex ligand binding assay was developed. Surfactant Protein-A (SP-A) was coupled to the surface of MagPlex beads by EDC/NHS, to capture the lipid tail of the globotetraosyl ceramide. The Globotetraosyl ceramide/SP-A beads were incubated with an eight-point threefold titration of PapG in a 96 well flat bottom white plate with final volume of 100 microliters of 50 mM HEPES PH 7.4, 10 mM NaCl, 0.0005% Tween 20 shaking at 300 rpm, 4° C. overnight. After 20-24 hours the ligand binding plates were read on a FlexMap 3D plate reader for measurement of well-bead region specific MFI. Ligand binding equilibrium dissociation constants (Kd) were calculated assuming one site specific binding and interpolated using non-linear curve fitting (GraphPad Prism) as the ligand concentration needed to achieve half-maximal binding. The Luminex derived apparent Kd values are based on approximately fifty bead counts per assay sample.\n(§4) Binding of PapG proteins to GbO2 or GbO4 ligands was evaluated using a Luminex platform wherein ligands were coupled to MagPlex beads via surfactant protein A (for […]) or directly using […] conjugation (for […]). This assay was used to rank order binding affinities of the mutants, reported as Kd values interpolated from protein antigen titration curves (Table 7)."}, "[5]": {"test": "Thermal shift in the presence of GbO3", "assay_type": "binding", "details": "in the presence of GbO3 relative to the apo form", "method": "as §2\nThe thermal stability of PapG WT and mutant proteins were determined using a SYPRO orange thermal shift-based differential scanning fluorimetry assay, wherein Tm designates the temperature at which 50% of the protein is unfolded. Non-covalent ligands often stabilize protein targets upon specific binding, resulting in an increase in protein melting temperature."}, "[6]": {"test": "Thermal shift (SYPRO orange) melting temperature, apo form", "assay_type": "physicochemical", "details": "apo state, PBS pH 7.4", "method": "as §2, §3"}, "[7]": {"test": "PapG Luminex ligand binding assay with globoside compound GbO2Mpo", "details": "result in words", "method": "10. PapG Ligand Binding Assay with Globoside Compound GbO2Mpo\nTo determine Luminex ligand binding affinities of PapG mutants for the synthetic globoside ligand Gal-Glc-phenoxy-octyl-amine (GbO2Mpo), a Luminex ligand binding assay was developed based on the direct coupling of the amine reactive globoside ligand to the EDC/NHS activated carboxylic surface of MagPlex beads. Synthesis of GbO2Mpo ligand with an octyl amine linker (for coupling to beads) was performed via methods described previously. The GbO2Mpo beads were incubated with an 8-point, threefold titration of PapG in a 96-well flat bottom white plate with final volume of 100 μl of 50 mM HEPES pH 7.4, 10 mM NaCl, 0.0005% Tween 20 shaking at 300 rpm, 4° C. overnight. After 20-24 hours the ligand binding plates were read on a FlexMap 3D plate reader for measurement of well-bead region specific MFI.\nas §4"}},
  "note": "Changes are numbered by the printed parent chain. In names and notes the source's numbering stands. Several values for one entry are separate records, joined by “and”; a condition that tells them apart may be missing. Equal values may be shown once. Entries after “also recorded” stand apart in the source; their conditions may differ.",
  "data": [
    {"molecule": "Globotriaosylceramide [GbO3] [listing 1 of 2 here]", "values": [
      {"measurement": "inhibition of hemagglutination", "setting": "[1]", "result": "efficiently blocks agglutination of RBCs; also recorded: concentration-dependent inhibition of hemagglutination"}
    ]},
    {"molecule": "Globotriaosylceramide [GbO3] [listing 2 of 2 here]", "values": [
      {"measurement": "ΔTm (Average)", "setting": "[2]", "result": "< 0.5 °C and 0.22 °C"},
      {"measurement": "inhibition of hemagglutination (in words)", "setting": "[3]", "result": "efficiently blocks agglutination of RBCs; also recorded: concentration-dependent inhibition of hemagglutination"}
    ]},
    {"molecule": "B1", "values": [
      {"measurement": "binding to GbO4 ligand", "setting": "[4]", "result": "prevent binding to GbO4; also recorded: lower the binding affinity; also recorded: eliminate ligand binding"},
      {"measurement": "ΔTm (Average)", "setting": "[5]", "result": 0.33, "unit": "°C"},
      {"measurement": "Tm (Ave.)", "setting": "[6]", "result": 55.83, "unit": "°C"}
    ]},
    {"molecule": "B2", "values": [
      {"measurement": "binding to GbO4 ligand", "setting": "[4]", "result": "prevent binding to GbO4; also recorded: lower the binding affinity; also recorded: eliminate ligand binding"},
      {"measurement": "ΔTm (Average)", "setting": "[5]", "result": 0.22, "unit": "°C"},
      {"measurement": "Tm (Ave.)", "setting": "[6]", "result": 62.64, "unit": "°C"}
    ]},
    {"molecule": "B3", "values": [
      {"measurement": "binding to GbO2 ligand", "setting": "[7]", "result": "reduced binding"},
      {"measurement": "binding to GbO4 ligand", "setting": "[4]", "result": "prevent binding to GbO4; also recorded: reduced binding; also recorded: lower the binding affinity; also recorded: eliminate ligand binding"},
      {"measurement": "ΔTm (Average)", "setting": "[5]", "result": 0.42, "unit": "°C"},
      {"measurement": "Tm (Ave.)", "setting": "[6]", "result": 56.38, "unit": "°C"}
    ]}
  ]
}
